This data set is described as follows: soluble on expression in E. coli; label from the status in PepcDB or PDB records.
Consider “MRVLLVTGKLAEEMVRKYGKGADVKVYNIDIAAFITPSMLENEDFSGYDLVLVPGLTYSHNWEDFERRKGVKVRLGPIHAYDLQHVLKLIGKVEFSHKIPACRLVESLRAEETLREIDALDEDCAFEIGGVKVGGSSRMKVVAEIASFCDFDDLRAKIDHYTESGADIIDIGVPLEFDKEWLHKTLKIAVDHSKLPLSIDTFSSKAIEIAVKHGVDMVMSISMDNLKALDLIENQAVVVVERDIDGLLNLVERVGEKVERVIADPILDPPLKVAESIGRYAEFRRRDEKTPLLFGAGNVTELSDADSIGINALLAFIAEELKCNLLFTTEASPKTFGSVRELNIASYLAKAAKIRNSPPKDAGVSLLALKEKVRYEERVELDDFVRAEETREFVRDPLGDFIIQVVDGKIVCKHDRMTIVGEKAKEVADTAIKNNLLSRLDHAAYLGRELMKAEIAALLKKSYIQDRELNFGFYQK”, for which the “soluble on expression in E. coli” value is given as “not soluble”.

On to “QCTNGFDLDRQSGQCLDIDECRTIPEACRGDMMCVNQNGGYLCIPRTNPVYRGPYSNPYSTPYSGPYPAAAPPLSAPNYPTISRPLICRFGYQMDESNQCVDVDECATDSHQCNPTQICINTEGGYTCSCTDGYWLLEGQCLDIDECRYGYCQQLCANVPGSYSCTCNPGFTLNEDGRSCQDVNECATENPCVQTCVNTYGSFICRCDPGYELEEDGVHCSDMDECSFSEFLCQHECVNQPGTYFCSCPPGYILLDDNRSCQDINECEHRNHTCNLQQTCYNLQGGFKCIDPIRCEEPYLRISDNRCMCPAENPGCRDQPFTILYRDMDVVSGRSVPADIFQMQATTRYPGAYYIFQIKSGNEGREFYMRQTGPISATLVMTRPIKGPREIQLDLEMITVNTVINFRGSSVIRLRIYVSQYPF”, for which the “soluble on expression in E. coli” value is “soluble”.

For the sequence “MGSDKIHHHHHHMKVAVIGAKGQLGTDLVDVLKEEFTVYPLTHEDVDVAVSESLEVLRDIHPDVIINTAAYVRVDDAENHAEKAFAVNAIGALNVARISSEIDAVNIYISTDYVFDGEKGEPYVETDKPNPINVYGASKYAGEILTKNYSEKHYVIRVASLYGKAGASGKGGNFVNWVVDMARKGQELRIVADQFMSPTYTKDVALAVREFLKLRPDYGIYHMVNDGYCSWFEFTKAIFEILDWDVEIQPIKSSELNRLARRPAFSALQNYKLERIGIKMRHWREALRDYLAEKGLV”, the “soluble on expression in E. coli” value is listed as “not soluble”.

Consider “GLISDIIACPGMDYCALATARSIPVAQEIATRFEELKLEHEIGALKIKISGCINACGHHHVGHIGILGLDRAGVENYQITLGGDATETAAIGERTGPGFAYDQIVPAVERIVETYLDQRRDREESFIETYRRVGMAPFKAALYPE”, for which the “soluble on expression in E. coli” value is reported as “not soluble”.

Consider “MSLRNQSKMPLVERLDAHAKSCPISLHVPGHKSGAIYPDAWQKLLKWDVTEITGMDDLHHPEDVILEAEELLAECYGSKKSYFLVNGTSGGNVAVIMATLKRGEKVLVPRDAHKSILHGIELAGGEPIFLTPATNKEVGVASGVTTELLEETLHNHPDVKLCIFTYPSYYGTTFNLQKCIRIAHDFGAVVFVDEAHGAHFLTSSEFPKSAVELGADVVVQSAHKTLPALTMGSYLHVVNDLPIFEKLAYYLQVFQTSSPSYLIMASLDAARKYVATYTAADVEAFWKMRARWIKWLTKNKFEVILPDDPLKIIVRKTGYTGYELQAIFEESSYFPELADESQVLLILPLIKKGIDFTPISRIHSPMKKEIAKEPYEMSTPCASGLALTYEEMHARATEFVLLDEATTRVSAETISLYPPGIPAIIRGEGITEKHIRELKNIRTRHYQGGEKLAENYIRVFREGHHHHHH”, for which the “soluble on expression in E. coli” value is given as “soluble”.

“GPLGSMSGPVPSRARVYTDVNTHRPREYWDYESHVVEWGNQDDYQLVRKLGRGKYSEVFEAINITNNEKVVVKILKPVKKKKIKREIKILENLRGGPNIITLADIVKDPVSRTPALVFEHVNNTDFKQLYQTLTDYDIRFYMYEILKALDYCHSMGIMHRDVKPHNVMIDHEHRKLRLIDWGLAEFYHPGQEYNVRVASRYFKGPELLVDYQMYDYSLDMWSLGCMLASMIFRKEPFFHGHDNYDQLVRIAKVLGTEDLYDYIDKYNIELDPRFNDILGRHSRKRWERFVHSENQHLVSPEALDFLDKLLRYDHQSRLTAREAMEHPYFYTVVKDQARMG”: the “soluble on expression in E. coli” value was “soluble”.

“MGSDKIHHHHHHMALRIYGDSISGNCLKVKWTADRLGIAYDWIETNVLTAETRTSAFMALNPAGQVPLAVFPDGRPLAQSNAIIFHLAEGSDLIPGNAFDRAKMLEWMFWEQYSHEPYIAVARFQVLYLGKPVESLEPRLIERGADALARLETQLQRSTFLVGDKLTLADVALVAYTRVAHEGGFDLSLYPAVEAWVGRVEADLGIR”: the “soluble on expression in E. coli” value is on record as “not soluble”.

In the case of “MNATPASADDLIVIGKIYSVHGVRGEVKVYSFTDPIGNLLDYKTWTLRREGSVEKQVELVSGRLQSKFLVVKLKGLDDREEARLLSGYEICVPRNLFPDLDDGEYYWYQLEGLKVIDQLGQLLGKIDHLLETGSNDVMVVKPCAGSLDDRERLLPYTEQCVLAIDMAAGEMKVEWDADFLEHHHHHH”, the “soluble on expression in E. coli” value is “soluble”.

Turning to “MGSDKIHHHHHHMDELYIMNPWWRDPEIINTDRHISMFENSTFKYFPENLFKKIPLNKPGIYTIRGPRQVGKTTFLKLYIRKLLRDGVKPSNIFFFTCDAVKDRFELIETMKAYFQIFERKAGETRYLFIDEITAVEDWQKSIKYLVDIGLLENSLLILTGSSAFDLKRSSERLPGRKGYGEDLVYLPLTFGEFLESLGISVERMSVDDIFLKSEEELRILYLKNSFLKEYFVKYLNTGGFPKVIDVFLKEGKIDEITKGVFRDFILGDAEKYLGSRIKVIEIFKKLPDIVGQRFSWNSLVDIFSGAIESVDTIQKYFEYLGYSFILMNVFFVDISRKTVRLKKQKKTYPIDRVVVDIIEEISGKQIKLPQIVEMLTLRHLMGNGKTLPNGMNLYDGPFFWYSDRGNEVDFVFEHGDSLIPVEINFQNNIHRSDYAGMKKVFKKGIVITQDAIFRDENIVAVPAWLFFAVFEGNE”, the “soluble on expression in E. coli” value was “not soluble”.

Take “AIAELFTLGACRQVGKSCFVLKTSEGLVMLDCGLHPSYQDDRRYPNFSLAFSYGPLKAVFITHCHADHVGALPILTERWGYDGPIYMSEPTRKLSYYILEECVGSWGGDDEWTDSSRSEWSYTQREVESCLTKVTIMEPGQSISVGENVQVHSWMAGHVLGAYMFSIVVDNHRILYTGDFTSCPTFHLPPARVDDIPYPPDVILSEATYATSFKDGRLNNQVEFIQNVLDCLLDGGKVLVPVFAIGRAQELLLLLGK”: the “soluble on expression in E. coli” value was “soluble”.

Consider “MKTLPVLPGQAASSRPSPVEIWQILLSRLLDQHYGLTLNDTPFADERVIEQHIEAGISLCDAVNFLVEKYALVRTDQPGFSACTRSQLINSIDILRARRATGLMTRDNYRTVNNITLGKYPEAK”, for which the “soluble on expression in E. coli” value is listed as “soluble”.

As for “MAEIDYKKVTGMIHSTESFGSVDGPGIRFIIFMQGCKMRCQYCHNPDTWEMETNNSKERTVEDVLKEALRYKHFWGKDGGITVSGGEAMLQIDFITALFIEAKKLGIHTTLDTCGFAYRATPEYHAILEKLLDVTDLVLLDLKEIDSEQHKIVTRQSNKNILQFARYLSDRGTPVWIRHVLVPGLTDIDDHLKRLGEFVQTLDNVDKFEVLPYHTMGEFKWRELGIPYPLAGVKPPTPERVKNAKDIMKTESYTEYLKRIQN”, the “soluble on expression in E. coli” value is “soluble”.

In the case of “MKEMTVSEIREVQLEMLAYIDKVARDNKIEYSLGGGSLLGAMRHKGFIPWDDDIDLMLERSQYERLMKALADANNSDFKLLHHSVEKNLWPFAKLYHTKSMYLSKTDRIHPWTGIFIDIFPLDRLPESAEERQRFFKKVHSAAANLMCTTYPNFASGSRKLYANARLILGLPRFIAYHGQAKKRAEIVDQVMETYNNQEVPYMGYTDSRYRLKEYFPREIFSEYEDVMFENIKTRKIKNEHAYLNQLYGGSYMELPPESKRESHSYYTWYWKEGLEHHHHHH”, the “soluble on expression in E. coli” value was “soluble”.

Take “MKLGFVGAGRVGSTSAFTCLLNLDVDEIALVDIAEDLAVGEAMDLAHAAAGIDKYPKIVGGADYSLLKGSEIIVVTAGLARKPGMTRLDLAHKNAGIIKDIAKKIVENAPESKILVVTNPMDVMTYIMWKESGKPRNEVFGMGNQLDSQRLKERLYNAGARNIRRAWIIGEHGDSMFVAKSLADFDGEVDWEAVENDVRFVAAEVIKRKGATIFGPAVAIYRMVKAVVEDTGEIIPTSMILQGEYGIENVAVGVPAKLGKNGAEVADIKLSDEEIEKLRNSAKILRERLEELGY”: the “soluble on expression in E. coli” value is on record as “soluble”.

On to “MGSDKIHHHHHHMYTFTNQFISNDKNVEFLKAAMMGPNAMRLAEELSSHLNIDETMRILDLGCGCGLSTLLLTKKYGASVFAADLWISPTENYERFQSLGIADKAVPISVDATKGLPFAKGYFDLLFTVDAYHYFGDTAAMLPSLIPFVKKGGYIAVAIPGLNYEFEDKVPDEMQPFWNSEMARTLHSLDWWKDLWKKAEGIEMVDSREMACCREAWQEWLTAYHPIVAEDIKMMAAEDGKYFNLVQLIAKVL”, for which the “soluble on expression in E. coli” value is on record as “not soluble”.

As to “MLWWEEVEDSYEREDVQKKTFTKWVNAQFSKFGKQHIENLFSDLQDGRRLLDLLEGLTGQKLPKEKGSTRVHALNNVNKALRVLQNNNVDLVNIGSTDIVDGNHKLTLGLIWNIILHWQVKNVMKNIMAGLQQTNSEKILLSWVRQSTRNYPQVNVINFTTSWSDGLALNALIHSHRPDLFDWNSVVSQQSATQRLEHAFNIARYQLGIEKLLDPEDVDTTYPDKKSILMYITSLFQVLPQQVSIE”, the “soluble on expression in E. coli” value is “soluble”.

Regarding “MLAHLEELKKNIEGDLYFDLTMRTLYATDASVYRELPLAVARPKHKQDVQKIIAFANKYKIGIIPRTAGTSLAGQVVGKGIIVDVSKYFTE”, the “soluble on expression in E. coli” value is recorded as “not soluble”.

“MTFSKSTTDKPSYTYEELSVKNKAYVWHPFTQMKDYLEEDPVIIERGEGRKLYDVNGNEYWDGVSSIWLNVHGHQVPELDEAIREQLNKIAHSTMLGLANVPSILLAEKIIEVVPEGLKKVFYSDSGSSAVEIAIKMAFQYWQHKGKPKKQRFVTLKEAYHGDTIGAVSVGAIDLFYQVYSSLLFEAIKMPYPYTYRSPYGNDKAEIVKKHLEEMEELLKDKHEEIAAIIVEPLMQGAGGMITMPKGYLRGLRNLCTKYNVLFITDEVATGFGRTGKMFACEHENVTPDILTAGKGLTGGYLPVAITVTTDEIYNAFLGSYEEQKTFFHGHSYTGNPLGCAVAIANLELYEKTNLIEEVARKTEYVATQLEELFACKHVGDIRQCGLMVGIELVKNKETKEAFEWTERVGVQVCKRSRELGMILRPLGNTIVFMPPLASTIDEIDEMLRILYKAISDITEGE”: the “soluble on expression in E. coli” value is given as “not soluble”.

Take “MHAFTTERLLIRPLISEDEHFYCYQYTDKKMMRIVGEPLTQEQASAAFHRALKANNLEQDTVRTWAIVDKAANDIIGTQALSWLATRQTTKPSSSPIEQVEIGIMLATRANGKLLPEEAVSAIMEYGFKQLNIGRINAFYANKNRATQRILKKIGYIFEPCLQDNTTDNGYQYFEQHQWSGVIITQLFPEEIEIKEPTVND”: the “soluble on expression in E. coli” value is “not soluble”.

As for “MSLTMAKTLYEKVFDAHVVYEGKNELPILYIDRHLIHEVTSPQAFSGLKMAKRRMARADLTLATIDHDVSTKSMDLNACSDMAKEQITTLMQNTKEFGVRLLGLGDKNQGIVHIVGPELGFTLPGVTLVCGDSHTATHGAFGALAFGIGTSEVEHVMATQTLKQAKLKTMKIECKGQFQKGVYTKDLILYLIAQYGTAKGTGYAIEFCGELIRNLSMEARMTLCNMAIEFGAKVGMIAPDEITFEYIKGKEFAPKGEEFQKYCEYWKSLRSDEGAKYDASITLDVSKIKPQISYGTNPSQVIGIDEKIPKISDFKNQSEQKSLLDALYYVNLEQDQVIEGVKIDIVFIGSCTNGRLEDLKIAADILKGRKIHKNVKALIVPGSMQVRKEAENLGLDKIFIEAGCEWRYAGCSMCLGMNDDKANSGQRVASTSNRNFVGRQGKGSITHLMSPASAAACAIEGVICDNRKYLGEGHHHHHH”, the “soluble on expression in E. coli” value was “soluble”.

The record behind these values is the DeepSol protein solubility set.
